This passage reports protein stability index results from the supplement of paper PMC10724198.

± gives the standard deviation of the averaged measurements.

The test system of this data set is Saccharomyces cerevisiae. Kind of data set: protein stability index of tFT-peptide fusion (C-terminal peptide) (PSI (0-1 scale)); higher = more stable (slower turnover). The conditions noted are these: temperature: 30 C. The protocol: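 MPS profiling in S. cerevisiae of the yeast C-terminome library: the last 12 aa of each annotated ORF are fused to the C-terminus of a sfGFP-mCherry timer, after a GGGS linker. Cells are FACS-sorted into 8 mCherry/sfGFP bins and deep-sequenced. PSI runs from 0 (unstable) to 1 (stable); wild type and das1Δ backgrounds, two technical replicates each.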

Setting [1] is: genetic background: das1 deletion.

As for KVETVLNKMFEK [REC114 C-terminal 12 aa], the protein stability index is 0.701 ± 0.015 under setting [1] and 0.687 ± 0.022 (genetic background: wild type).

On to KVIRGKGFKLPK [ERD2 C-terminal 12 aa], for which the protein stability index by setting is: under setting [1], 0.675 ± 0.0093; (genetic background: wild type) 0.667 ± 0.036.

For the sequence KVLACYEEIDDY [UBC11 C-terminal 12 aa], the protein stability index under setting [1] came out at 0.679 ± 0.0098 and the protein stability index (genetic background: wild type) amounted to 0.712 ± 0.059.

In the case of KYEPTQEIIEDI [ITR1 C-terminal 12 aa], the protein stability index under setting [1] came out at 0.693 ± 0.036 and the protein stability index (genetic background: wild type) was found to be 0.702 ± 0.048.

Turning to KYNNYFKIPPKY [BI3 C-terminal 12 aa], the protein stability index reads like this: under setting [1], 0.688 ± 0.022; (genetic background: wild type) 0.659 ± 0.018.

On to LAKLINKSCVFK [YKL069W C-terminal 12 aa], for which the protein stability index is 0.7 ± 0.023 under setting [1] and 0.642 ± 0.029 (genetic background: wild type).

With LARGGVASFTVK [RNH70 C-terminal 12 aa], the protein stability index is, setting by setting: under setting [1], 0.703 ± 0.0078; (genetic background: wild type) 0.652 ± 0.0088.

On to LARLKTCVLLIN [YML122C C-terminal 12 aa], for which the protein stability index was 0.544 ± 0.017 under setting [1] and 0.154 ± 0.0076 (genetic background: wild type).

On to LCGAPNCKGFLN [SET1 C-terminal 12 aa], for which the protein stability index reads like this: under setting [1], 0.677 ± 0.026; (genetic background: wild type) 0.671 ± 0.036.

For the sequence LEKSTNPIKKNN [VOA1 C-terminal 12 aa], the protein stability index is, setting by setting: under setting [1], 0.703 ± 0.023; (genetic background: wild type) 0.765 ± 0.038.

Turning to LEKVLNQIGLKN [YNL011C C-terminal 12 aa], the protein stability index is, setting by setting: under setting [1], 0.6874 ± 0.0064; (genetic background: wild type) 0.6425 ± 0.0062.

With LEPQESKPTIDH [AIM34 C-terminal 12 aa], the protein stability index runs as follows: under setting [1], 0.697 ± 0.018; (genetic background: wild type) 0.6899 ± 0.005.

For LFCYCSCDSYES [YBL100C C-terminal 12 aa], the protein stability index is, setting by setting: under setting [1], 0.646 ± 0.017; (genetic background: wild type) 0.668 ± 0.031.

As for LFDARFERKNPH [SRB8 C-terminal 12 aa], the protein stability index reads like this: under setting [1], 0.737 ± 0.025; (genetic background: wild type) 0.7112 ± 0.0032.

Consider “LGFIQNSTIVCQ [YMR306C-A C-terminal 12 aa]”, for which the protein stability index by setting is: under setting [1], 0.467 ± 0.028; (genetic background: wild type) 0.494 ± 0.019.

Regarding LGKKKPPSRLFR [CDC25 C-terminal 12 aa], the protein stability index worked out at 0.707 ± 0.019 under setting [1] and 0.715 ± 0.035 (genetic background: wild type).

As to LGLSLRRGTEIW [MRP8 C-terminal 12 aa], the protein stability index stood at 0.72702 ± 0.00035 under setting [1] and 0.72218 ± 0.00069 (genetic background: wild type).

On to “LGSNCVFLAIFR [YPL222C-A C-terminal 12 aa]”, for which the protein stability index reads like this: under setting [1], 0.674 ± 0.032; (genetic background: wild type) 0.648 ± 0.02.

In the case of LHTEREKKKKKF [YKR040C C-terminal 12 aa], the protein stability index reads like this: under setting [1], 0.725 ± 0.043; (genetic background: wild type) 0.682 ± 0.1.

Turning to LHVVSSAYFEIQ [YEL075C C-terminal 12 aa], the protein stability index stood at 0.674 ± 0.041 under setting [1] and 0.626 ± 0.044 (genetic background: wild type).

For the sequence LICQTESNPKIV [VPS8 C-terminal 12 aa], the protein stability index is 0.708 ± 0.0091 under setting [1] and 0.694 ± 0.036 (genetic background: wild type).

LIVSFFYKRNAL [IQG1 C-terminal 12 aa] came in with a protein stability index under setting [1] of 0.667 ± 0.018 and a protein stability index (genetic background: wild type) of 0.584 ± 0.015.

On to LIVSYCASVAFG [ATG12 C-terminal 12 aa], for which the protein stability index by setting is: under setting [1], 0.366 ± 0.013; (genetic background: wild type) 0.382 ± 0.0029.

Take LKDQIVETRTPI [ERG27 C-terminal 12 aa]: the protein stability index is, setting by setting: under setting [1], 0.707 ± 0.042; (genetic background: wild type) 0.664 ± 0.02.

With LKLKRDLLRLKR [CIP1 C-terminal 12 aa], the protein stability index is, setting by setting: under setting [1], 0.682 ± 0.019; (genetic background: wild type) 0.651 ± 0.021.

Regarding LKQTVESLIKEL [VPS51 C-terminal 12 aa], the protein stability index turned out to be 0.66 ± 0.0088 under setting [1] and 0.711 ± 0.072 (genetic background: wild type).

Regarding LKSATESFVATF [ATP1 C-terminal 12 aa], the protein stability index reads like this: under setting [1], 0.701 ± 0.0097; (genetic background: wild type) 0.694 ± 0.014.

On to LKSVKHSIRVYT [YPR012W C-terminal 12 aa], for which the protein stability index was found to be 0.627 ± 0.015 under setting [1] and 0.604 ± 0.028 (genetic background: wild type).

Take LLFGDEVVACKD [YDL172C C-terminal 12 aa]: the protein stability index reads like this: under setting [1], 0.722 ± 0.017; (genetic background: wild type) 0.691 ± 0.011.

On to LLGAITALFGLI [PLB2 C-terminal 12 aa], for which the protein stability index stood at 0.686 ± 0.034 under setting [1] and 0.658 ± 0.029 (genetic background: wild type).

LLKKLKVVFGIE [FUN12 C-terminal 12 aa]: the protein stability index is 0.703 ± 0.014 under setting [1] and 0.68523 ± 0.0002 (genetic background: wild type).

Regarding LLLTILLFYPPY [YBL109W C-terminal 12 aa], the protein stability index was 0.296 ± 0.011 under setting [1] and 0.318 ± 0.022 (genetic background: wild type).

For the sequence LLTAMSAQISFD [AAD16 C-terminal 12 aa], the protein stability index is, setting by setting: under setting [1], 0.735 ± 0.00072; (genetic background: wild type) 0.72 ± 0.012.

Take LLYHMDLLLKVK [VID28 C-terminal 12 aa]: the protein stability index was 0.299 ± 0.026 under setting [1] and 0.365 ± 0.015 (genetic background: wild type).

With “LMQLLLGSLGLS [YKL145W-A C-terminal 12 aa]”, the protein stability index is, setting by setting: under setting [1], 0.706 ± 0.0093; (genetic background: wild type) 0.716 ± 0.031.

For the sequence LNDMVLELKENY [NNF1 C-terminal 12 aa], the protein stability index stood at 0.698 ± 0.015 under setting [1] and 0.704 ± 0.0096 (genetic background: wild type).

With LNEPKDSAENKI [SRC1 C-terminal 12 aa], the protein stability index reads like this: under setting [1], 0.6958 ± 0.0062; (genetic background: wild type) 0.659 ± 0.026.

Consider LNWVFSFYSCSE [YIL163C C-terminal 12 aa], for which the protein stability index was 0.6796 ± 0.0049 under setting [1] and 0.688 ± 0.019 (genetic background: wild type).

LQYKKVGKWRED [URB2 C-terminal 12 aa]: the protein stability index turned out to be 0.724 ± 0.017 under setting [1] and 0.736 ± 0.0096 (genetic background: wild type).

As to LRKAAANNCIQF [SUA5 C-terminal 12 aa], the protein stability index runs as follows: under setting [1], 0.7215 ± 0.0026; (genetic background: wild type) 0.7134 ± 0.0016.

For LRKRLSCYMLIL [YDR114C C-terminal 12 aa], the protein stability index runs as follows: under setting [1], 0.576 ± 0.013; (genetic background: wild type) 0.4114 ± 0.0012.

LRNQSPFTSSNE [YKL107W C-terminal 12 aa]: the protein stability index worked out at 0.695 ± 0.02 under setting [1] and 0.682 ± 0.029 (genetic background: wild type).

Consider LRRGEPDNKVNR [SPG4 C-terminal 12 aa], for which the protein stability index turned out to be 0.71 ± 0.019 under setting [1] and 0.708 ± 0.012 (genetic background: wild type).

Take LRVYENFQKFIK [YMR262W C-terminal 12 aa]: the protein stability index by setting is: under setting [1], 0.72 ± 0.054; (genetic background: wild type) 0.705 ± 0.04.

For the sequence LSDASYDTYELV [SPG5 C-terminal 12 aa], the protein stability index by setting is: under setting [1], 0.703 ± 0.011; (genetic background: wild type) 0.743 ± 0.01.

LSEKIYDAFGKL [MUS81 C-terminal 12 aa]: the protein stability index came to 0.723 ± 0.015 under setting [1] and 0.7271 ± 0.0047 (genetic background: wild type).

As for LSIFGFDMFNRK [YMR1 C-terminal 12 aa], the protein stability index came to 0.706 ± 0.046 under setting [1] and 0.703 ± 0.028 (genetic background: wild type).

LSNMLNQFILNL [YLR202C C-terminal 12 aa]: the protein stability index came out at 0.754 ± 0.058 under setting [1] and 0.74991 ± 6.5e-05 (genetic background: wild type).

On to LSQIVDIWNKDI [MNT2 C-terminal 12 aa], for which the protein stability index by setting is: under setting [1], 0.741 ± 0.03; (genetic background: wild type) 0.79 ± 0.044.

Sequence LSTFFLFHNPCN [YGL239C C-terminal 12 aa] displayed a protein stability index under setting [1] of 0.762 ± 0.022 and a protein stability index (genetic background: wild type) of 0.706 ± 0.079.

The sequence LSTLGVGAAIIS [AVT1 C-terminal 12 aa] gave a protein stability index under setting [1] of 0.695 ± 0.024 and a protein stability index (genetic background: wild type) of 0.675 ± 0.035.

As to LSVHPLKPCDPN [INP52 C-terminal 12 aa], the protein stability index runs as follows: under setting [1], 0.684 ± 0.0054; (genetic background: wild type) 0.661 ± 0.042.

As to LTARKVNALRHR [KNH1 C-terminal 12 aa], the protein stability index was determined as 0.694 ± 0.028 under setting [1] and 0.694 ± 0.048 (genetic background: wild type).

For LTILRISELSMN [MRPL49 C-terminal 12 aa], the protein stability index runs as follows: under setting [1], 0.7053 ± 0.0034; (genetic background: wild type) 0.354 ± 0.0057.

Turning to LTLNWGVEIVKK [RDI1 C-terminal 12 aa], the protein stability index under setting [1] was 0.73 ± 0.03 and the protein stability index (genetic background: wild type) was 0.725 ± 0.017.

With “LTMLPPMAPLLS [YMR158W-B C-terminal 12 aa]”, the protein stability index under setting [1] came to 0.684 ± 0.021 and the protein stability index (genetic background: wild type) amounted to 0.653 ± 0.018.

For LTPADLQFLFNN [RAD16 C-terminal 12 aa], the protein stability index came to 0.72 ± 0.013 under setting [1] and 0.708 ± 0.017 (genetic background: wild type).

With LTQVEKPRGIFD [DDC1 C-terminal 12 aa], the protein stability index under setting [1] turned out to be 0.71 ± 0.023 and the protein stability index (genetic background: wild type) was 0.674 ± 0.013.

As to LVEGQTFDADVE [EGD1 C-terminal 12 aa], the protein stability index by setting is: under setting [1], 0.69111 ± 4.7e-05; (genetic background: wild type) 0.671 ± 0.033.

In turn, LVLKQRQEQEKQ [GDI1 C-terminal 12 aa] registered a protein stability index under setting [1] of 0.688 ± 0.025 and a protein stability index (genetic background: wild type) of 0.717 ± 0.06.

Turning to LVRFIEAEKFVG [SNX3 C-terminal 12 aa], the protein stability index under setting [1] worked out at 0.7119 ± 0.003 and the protein stability index (genetic background: wild type) is 0.6912 ± 0.0047.

For the sequence LYDNIRSGNFGI [MSB1 C-terminal 12 aa], the protein stability index reads like this: under setting [1], 0.771 ± 0.008; (genetic background: wild type) 0.6503 ± 0.00092.

In the case of MDNKQQLSSGRT [SNA3 C-terminal 12 aa], the protein stability index turned out to be 0.709 ± 0.016 under setting [1] and 0.686 ± 0.021 (genetic background: wild type).

Regarding MFKCARQSEFDK [MTG2 C-terminal 12 aa], the protein stability index by setting is: under setting [1], 0.6881 ± 0.0066; (genetic background: wild type) 0.6829 ± 0.0037.

MKKLQNKKSSAV [CAB5 C-terminal 12 aa] came in with a protein stability index under setting [1] of 0.695 ± 0.05 and a protein stability index (genetic background: wild type) of 0.677 ± 0.021.

Regarding MQRVSTQHEKSS [PMA2 C-terminal 12 aa], the protein stability index by setting is: under setting [1], 0.693 ± 0.024; (genetic background: wild type) 0.711 ± 0.096.

Take MQTHYILMKAQW [PPM1 C-terminal 12 aa]: the protein stability index turned out to be 0.579 ± 0.008 under setting [1] and 0.5353 ± 0.0021 (genetic background: wild type).
